Test results from the supplement of paper PMC9170038.

Tested on: MS2 coat protein
Experiment: apparent KD of MS2 coat protein; designed switch direction (-1 OFF switch, 1 ON switch): -1; higher = weaker reporter binding
Procedure, shortened: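 Stalled E. coli RNA polymerase transcribed designed RNA switches on Illumina chips, which were then titrated with SNAP-549-labelled MS2 coat protein, doubling from 0.7 or 1.5 nM to 3 µM. Steps lasted from 0.8–1.5 h at the lowest concentration to 10–20 min at the highest. The apparent KD is each design's median over clusters of curve-fitted normalised fluorescence.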

[1] = Eterna round: R95, input ligand: microRNA oligo, concentration not stated
[2] = Eterna round: R95, input ligand: FMN 200 uM
[3] = Eterna round: R95, input ligand: none
[4] = input ligand: microRNA oligo, concentration not stated

Row | Sequence | apparent KD of MS2 coat protein [1] [nM] | apparent KD of MS2 coat protein [2] [nM] | apparent KD of MS2 coat protein [3] [nM] | apparent KD of MS2 coat protein (input ligand: FMN 200 uM) [nM] | apparent KD of MS2 coat protein [4] [nM] | apparent KD of MS2 coat protein (input ligand: none) [nM]
1 | GUAGAGUCAGGAUAUACAAGAUCGAAAGAUCGAAGAUCCAUACAUGAGGAUCACCCAUGUAGAAGGGACUCUAC [ChP 11-04-2015 #3] (puzzle: Exclusion 2) | 16.9 |  |  |  |  | 
2 | AGUACUAACUCGAAAGUGUUAGUACAAUAAGCUUGUGAAACAUGAGGAUCACCCAUGUCCUCAUAAGCUCGUCUUAU [salish99_TOv2_r3_022] (puzzle: Sensor v3, turn-off variant 2) | 739 | 15.7 | 15.3 |  |  | 
3 | AAAGAAGAGAGAAAAUAACACAUGAGGAUCACCCAUGUGAGAUGUUGAGGGUGAUACAGGCUUUUUGCUCGUCUUAU (puzzle: Sensor v3, turn-off variant 1) | 283 | 231 | 321 |  |  | 
4 | UAGAAUCGAGGAUAUACAUGAGGAUCACCCAUGUGUGGCCAUUUGGUGUGGUCGUCAGGUAGAAGGCGAUUACA [Exclusion 3 - Mod of Jieux's Gilly Gone Silly 23 v.5] (Eterna round: R96, puzzle: Exclusion 3) |  |  |  | 173 | 211 | 412
5 | ACAAGCUUUUUGCUCGUCGAGUAGAAACGUGAGAGCGAGACAUGAGGAUCACCCAUGUAAAGGCAGUAGGUGGAGAU [JR_SV3TOV2_Sub025] (puzzle: Sensor v3, turn-off variant 2) | 43.2 | 33.2 | 33.9 |  |  | 
6 | GGUACUAUCACCUGAGUGGUAGUGCCACAAGCUUGUGAUACAUGAGGAUCACCCAUGUCCUCAUUUGCUCGUCUUAU [JL-sv3-2.28 JL mod] (puzzle: Sensor v3, turn-off variant 2) | 1080 | 289 | 343 |  |  | 
7 | CGAUAAAAGUGAGGAUAUGAGGAGAGAGAGAGAUCAGAAGGCACACAUGAGGAUCACCCAUGUGAGUUCUCGAAAUUAAAUAUU [Prohibition 49 - Jieux - Exclusion NG 1] (Eterna round: R96, puzzle: Exclusion NG 1) |  |  |  | 15.2 | 11.4 | 18
8 | CUAUUGUGAGGAUAUCAGUAGUAAUACAAUAGUAUUACUACUGAGAAGGCACAUGAGGAUCACCCAUGUUCCUU [Mat - Exclusion 4 - Mod of Omei - D76] (puzzle: Exclusion 4) | 14.4 |  |  |  |  | 
9 | AGGUGACAUGAGGAUCACCCAUGUAAGGAUAUACGGUUAGUGGAGAGUUGGAAGAGAGGUAGAAGGUACGGAGC [JR_Exclu1_Sub059] (puzzle: Exclusion 1) | 197 |  |  |  |  | 
10 | CAUAGCCGUGUAAGGAUAUCCGAUCCACGGGACAAGGAGAAGGUACAUGAGGAUCACCCAUGUAAGGGUUCCUA [Vecequve] (Eterna round: R97, puzzle: Brourd's mod of Exclusion 4) |  |  |  | 22.9 |  | 21.7
11 | UUUAAUUGUCAGAUGGGUGACAUGAGGAUCACCCAUGUCACAAGCUUUUUGUUCGUCUUAUAAUUAACCCAUCUGAC [Stov1/11-B1] (Eterna round: R97, puzzle: Sensor, turn-off variant 1) |  |  |  | 14 |  | 13.8
12 | AAGUCGAGCGUGAGGAUAUCGUCCGGACGACCCAACGAGAAGGCACAUGAGGAUCACCCAUGUGAUUCAGCUCA [Brourd's EX4 #50] (Eterna round: R97, puzzle: Brourd's mod of Exclusion 4) |  |  |  | 20.3 |  | 18.7
13 | ACAAGCUUUUUGCUCGGCUACAUGAGGAUCACCCAUGUUGUGUGUUAUUGUUUUUGAUUGUUCGUGCGCAGCAGGUA [JR_SV3TOV1_Sub073] (puzzle: Sensor v3, turn-off variant 1) | 29.4 | 71 | 112 |  |  | 
14 | AGAGUGCUGCGAGGAUAUACAUGAGGAUCACCCAUGUAAAUGUGUGAGGCUUUGCCUCACACAAUGUAGAAGGCGCAGUACUCU [Mat - Exclusion NG 2 - Mod of JL - D1] (Eterna round: R96, puzzle: Exclusion NG 2) |  |  |  | 17.8 | 8.58 | 15.6
15 | GUGAGCAGACGGAGAUCCUACAUGAGGAUCACCCAUGUCUCACUAGCUUUUUGCUCGUCUUAUCCUCCUCUGUUCUC [Elimod 25 - Jieux - Sensor, turn-off variant 1] (Eterna round: R97, puzzle: Sensor, turn-off variant 1) |  |  |  | 176 |  | 201
16 | UGAUCAGACCGAGGAUAUACAUGUAGGACGCACGUGAGUGCGUCCAUUACAUGAGGAUCACCCAUGUAGAAGGCGGUCUGAUCU [JL ENG2 1.93] (Eterna round: R96, puzzle: Exclusion NG 2) |  |  |  | 331 | 133 | 157
17 | CCUCCACAUGAGGAUCACCCAUGUCAGGAUAUCGUGUGCGCGUUUUCGGUCUUUCGCGCGAGAAGGGACGACUG (puzzle: Exclusion 1) | 24.7 |  |  |  |  | 
18 | UUAAGGAUAGAGGAUAUAUUAAAGAAGGUGGCGAUAGAAGGCUAGACAUGAGGAUCACCCAUGUAAAUUGGGAU [JR_Ex6_Sub068] (Eterna round: R97, puzzle: Exclusion 6) |  |  |  | 378 |  | 309
19 | ACCCAACAUGAGGAUCACCCAUGUCAGGAUAUCCUCGGGAAACCAAAAGAGGAGCCGAGGAGAAGGGACAGAGG [ChP 04-04-2015 #5] (puzzle: Exclusion 1) | 233 | 124 | 227 |  |  | 
20 | UCGUAGUCAGGAUAUACAUGAGGAUCACCCAUGUAAAAUUUUAAUUUAAUUUUAAGGUGUAGAAGGGACCAUUU [Ex3 #21] (Eterna round: R97, puzzle: Exclusion 3) |  |  |  | 46.7 |  | 45.8
21 | GGAGCGGCAGGAUAUACAUGAGGAUCACCCAUGUAAAGAAGGGUAAGAAACCACCUCGGUAGAAGGGCCAGGAG [AK-MS2ROC-r4-exclusion3-10] (Eterna round: R97, puzzle: Exclusion 3) |  |  |  | 191 |  | 94.5
22 | GUCCUGGACUAUCACAAGCACAUGAGGAUCACCCAUGUCAUGGGUGGGUCACUAAGUACGGCUACUGCUCGUCUUAU [Cac Sensor turn off var1 sub8] (Eterna round: R97, puzzle: Sensor, turn-off variant 1) |  |  |  | 436 |  | 495
